B1: Guanylyl cyclase-activating protein 1, P43080 (parent)
chain: MGNVMEGKSVEELSSTECHQWYKKFMTECPSGQLTLYEFRQFFGLKNLSPSASQYVEQMFETFDFNKDGYIDFMEYVAALSLVLKGKVEQKLRWYFKLYDVDGNGCIDRDELLTIIQAIRAINPCSDTTMTAEEFTDTVFSKIDVNGDGELSLEEFIEGVQKDQMLLDTLTRSLDLTRIVRRLQNGEQDEEGADEAAEAAG

Variants of: B1
Details: Homo sapiens, pH 7.5, Thermal, CD, Tris-HCl 20mM, whole UniProt chain shown

| Variant | Tm (KCL 150 mM) | change of melting temperature, mutant - wild type (higher = more stable) (KCL 150 mM) | Tm (KCL and Mg2+ 150 mM and 1 mM) | change of melting temperature, mutant - wild type (higher = more stable) (KCL and Mg2+ 150 mM and 1 mM) |
| --- | --- | --- | --- | --- |
| G86R | 41.6 °C | -8.2 °C | 46.8 °C | -3.5 °C |
| G86R W94L | 42 °C | -7.8 °C | 47 °C | -3.3 °C |
| G86R W94F | 40.6 °C | -9.2 °C | 47.8 °C | -2.5 °C |

— FireProtDB (doi:10.3390/ijms21030752)
